# Reference: US20120058118A1 (Boehringer Ingelheim, published 2012)
# Where a chain is given by its changes, count along the chain named. Like-named read-outs stand apart in the source and are kept apart here. Ends that are not written are not given here. * marks the point of attachment. Biotin = O=C1N[C@H]2[C@H](CS[C@H]2CCCCC(=O)*)N1
# T1: A-beta(12-28) peptide (human)
# T1 construct: Bachem peptide captured on streptavidin chip; also called monomeric A-beta(12-28); central region
# T1 peptide: Biotin-VHHQKLVFFAEDVGSNK
# T2: His.Xa.Abeta1-28.GS.p38 fusion protein
# T2 construct: His-tag, factor Xa site, A-beta(1-28), GS linker, murine p38 alpha; the SEC experiment names it only A-beta(1-28)-p38 fusion protein; also called A-beta(1-28)-p38 fusion protein; A-beta-p38 fusion protein
# T2 chain: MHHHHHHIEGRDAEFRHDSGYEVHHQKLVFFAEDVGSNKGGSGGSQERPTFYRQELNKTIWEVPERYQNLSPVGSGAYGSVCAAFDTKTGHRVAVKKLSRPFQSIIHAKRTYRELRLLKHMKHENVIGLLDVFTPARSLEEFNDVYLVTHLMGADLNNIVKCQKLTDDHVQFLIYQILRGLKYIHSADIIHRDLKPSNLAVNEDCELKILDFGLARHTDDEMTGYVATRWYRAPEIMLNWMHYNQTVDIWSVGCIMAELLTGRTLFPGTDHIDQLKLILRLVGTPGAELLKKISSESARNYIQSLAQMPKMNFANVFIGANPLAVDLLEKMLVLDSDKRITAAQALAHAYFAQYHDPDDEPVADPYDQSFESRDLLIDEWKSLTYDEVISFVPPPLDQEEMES
# T3: A-beta(1-16) peptide (human)
# T3 construct: Bachem peptide captured on streptavidin chip; also called monomeric A-beta(1-16)
# T3 peptide: DAEFRHDSGYEVHHQK-biotin
# T4: mouse A-beta(1-40) peptide (mouse)
# T4 construct: Bachem peptide coated directly; also called rodent A-beta(1-40)
# T4 peptide: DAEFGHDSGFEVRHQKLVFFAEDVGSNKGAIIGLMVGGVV
# B1: ABII42D4-9GS-ABII42D4 (designed binder)
# chain: EVQLVESGGGLVLAGGSLRLSCVHSGPTFSTDTMGWFRQAPGKEREFVAAVTWNSGRTNYADSVKGRFTVSRDNTRNAAYLQMSGLKDEDTAVYYCTAHRLVVGGTSVGDWRYWGQGTQVTVSSGGGGSGGGGEVQLVESGGGLVLAGGSLRLSCVHSGPTFSTDTMGWFRQAPGKEREFVAAVTWNSGRTNYADSVKGRFTVSRDNTRNAAYLQMSGLKDEDTAVYYCTAHRLVVGGTSVGDWRYWGQGTQVTVSS
# notes: VHH dimer with two identical domains; also called bivalent ABII42D4
# B2: ABII60G11 (VHH)
# VHH: EVQLVESGGGSEQAGGSLRLSCATSGRAFSVYAWFRQAPGKERTFVAAVAWVGGSTFYSDSVKGRFTISRDNAKNTVFLHMNSLKPEDTAAYYCAARLYGGRWYNSPRVDDFEYWGQGTQVTVSS
# B3: 60A10-27GS-42D4-Alb (designed binder)
# chain: EVQLVESGGGLVQAGGSLRLSCAASGRTFNNYNMGWFRQAPGKEREFVAAVSRSGVSTYYADSVKGRFTISRDNAKNAVYLQMNSLKPEDTAIYYCGAAYRGTAINVRRSYDSWGQGTQVTVSSGGGSGGGGSGGGGSGGGGSGGGGSGGGEVQLVESGGGLVLAGGSLRLSCVHSGPTFSTDTMGWFRQAPGKEREFVAAVTWNSGRTNYADSVKGRFTVSRDNTRNAAYLQMSGLKDEDTAVYYCTAHRLVVGGTSVGDWRYWGQGTQVTVSS
# notes: calculated molecular weight 95 kDa; also called biparatopic VHH fused to human serum albumin; not shown: human serum albumin, fused C-terminally
# B4: reference VHH 2D2 (VHH)
# VHH: AVQLVDSGGGLVQAGGSLRLSCAVSGGTFSSIGMGWFRQAPGKEREFVGAISRSGDSTYYADSVKGRFTISRDGAKNTVYLQMNSLKDEDTAVYYCAGRPAGTAINIRRSYNYWGQGTQVTVSS
# notes: from WO2006/40153, made and purified like the other VHHs
# B5: monoclonal antibody m266 (IgG) (antibody, V domains shown)
# VH: EVKLVESGGGLVQPGGSLKLSCAVSGFTFSRYSMSWVRQTPEKRLELVAQINSVGNSTYYPDTVKGRFTISRDNAEYTLSLQMSGLRSDDTATYYCASGDYWGQGTTLTVSS
# VL: DVVMTQTPLSLPVSLGDQASISCRSSQSLIYSDGNAYLHWFLQKPGQSPKLLIYKVSNRFSGVPDRFSGSGSGTDFTLKISRVETEDLGVYFCSQSTHVPWTFGGGTKLEIK
# notes: also called IgG m266; IgG266
# B6: ABII42D4 (VHH)
# VHH: EVQLVESGGGLVLAGGSLRLSCVHSGPTFSTDTMGWFRQAPGKEREFVAAVTWNSGRTNYADSVKGRFTVSRDNTRNAAYLQMSGLKDEDTAVYYCTAHRLVVGGTSVGDWRYWGQGTQVTVSS
# notes: also called ABIIPMP42D4
# B7: ABII111B5_M107R = ABII002 (VHH)
# VHH: B6 VHH with S30R, T58I, L101F, T106N, S107R, G109E
# notes: myc-tagged in ELISA
# What was measured:
# [1] = molecular target: T5, human A-beta(1-40) peptide, monomeric (BAM) (human, biotin at the C-terminus in capture ELISA, SPR and TR-FRET; not biotinylated where coated directly (Example 7)); assay: 42D4 TR-FRET assay (labelled ABII42D4)
# T5 construct: synthetic peptide (Anaspec), TFA/HFIP treated to give monomer; also called monomeric A-beta
# [2] = molecular target: T5, human A-beta(1-40) peptide, monomeric …; assay: 60A10 TR-FRET assay (labelled ABII60A10)
# [3] = molecular target: T5, human A-beta(1-40) peptide, monomeric …; assay: ABII42D4 TR-FRET assay
# [4] = molecular target: T1, A-beta(12-28) peptide; assay: SPR on captured A-beta(12-28)
# Experimental: (§1) After capturing, surfaces are blocked by injecting an excess (200 μg/ml) of d-biotin for 180 s at 5 μl/min. A reference surface is washed and blocked with d-biotin. HBS-EP+buffer is used as the running buffer and experiments are performed at 25° C. For off-rate screening, periplasmic extracts of VHHs are injected at a 10-fold dilution for 2 min at 45 μl/min and are allowed to dissociate for 10 min. […] Between different VHH samples, the surfaces are regenerated with regeneration buffer (50 mM NaOH) for 25 s at 45 μl/min followed by 10 s 6M GuHCl at 45 μl/min if regeneration is incomplete. […] Data are double referenced by subtraction of the curves on the reference channel and of a blank running buffer injection. Sensorgrams are evaluated by fitting a 1:1 dissociation model using the Biacore T100 Evaluation software v1.1.1.
# [5] = molecular target: T5, human A-beta(1-40) peptide, monomeric …; assay: TR-FRET competition, labelled ABII60A10
# [6] = molecular target: T6, aggregated A-beta(1-40) peptide (BAA) (human); assay: BAA ELISA
# T6 construct: also called A-beta peptide aggregates
# [7] = molecular target: T5, human A-beta(1-40) peptide, monomeric …; assay: SPR (Biacore T100), periplasmic extracts on captured biotinylated A-beta(1-40), 1:1 model
# Experimental: as §1
# [8] = molecular target: T5, human A-beta(1-40) peptide, monomeric …; assay: BAM ELISA
# [9] = molecular target: T2, His.Xa.Abeta1-28.GS.p38 fusion protein; assay: size exclusion chromatography, Experion quantification (0.87 µM and 0.86 µM)
# Experimental: Determination of the binding mode using size exclusion chromatography: Size exclusion chromatography (SEC) separates molecules according to differences in size as they pass through a gel filtration medium packed in a column. The binding mode of biparatopic VHH constructs to their target can be identified by analysing the protein complex after incubating a 1:2 molar ratio of the respective VHH construct and the target protein. Therefore the mixture will be separated by SEC and the contents of the resulting peaks is analyzed by protein gel electrophoresis. […] The gel filtration produced two peaks which are further analyzed by SDS-PAGE using the automated electrophoresis station Experion (Bio-Rad, USA) and the appropriate chip (Pro260 Chip, Bio-Rad, USA).
# [10] = molecular target: T6, aggregated A-beta(1-40) peptide (BAA); assay: BAA ELISA; remark: listed apart in the source
# [11] = molecular target: T5, human A-beta(1-40) peptide, monomeric …; assay: BAM ELISA; remark: listed apart in the source
# [12] = molecular target: T5, human A-beta(1-40) peptide, monomeric …; assay: TR-FRET competition, labelled ABII60A10; extrapolated curve
# [13] = molecular target: T5, human A-beta(1-40) peptide, monomeric …; assay: cell-based or functional assay
# [14] = molecular target: T5, human A-beta(1-40) peptide, monomeric …; assay: TR-FRET competition; extrapolated curve
# [15] = molecular target: T7, pGlu-A-beta(1-28), C-terminally biotinylated (human, pyroglutamate formed from the glutamate at position 3 (N-terminus); biotin at the C-terminus); assay: SPR on captured C-terminally biotinylated pGlu-A-beta(1-28), 1:1 model
# T7 construct: printed as pGlu-A-beta(1-28), while the text says that the first two N-terminal residues are missing; range 3-28 is my reading; also called pyroglutamyl-Abeta
# Text: Association and dissociation curves can be fitted using a 1:1 interaction model and an accurate KD value can be determined.
# [16] = molecular target: T5, human A-beta(1-40) peptide, monomeric …; assay: ABII050 TR-FRET competition assay
# [17] = molecular target: T5, human A-beta(1-40) peptide, monomeric …; assay: TR-FRET competition, labelled ABII60A10; remark: listed apart in the source
# [18] = molecular target: T5, human A-beta(1-40) peptide, monomeric …; assay: TR-FRET competition, labelled ABII42D4
# [19] = molecular target: T5, human A-beta(1-40) peptide, monomeric …; assay: TR-FRET competition
# [20] = molecular target: T5, human A-beta(1-40) peptide, monomeric …; assay: TR-FRET competition, labelled ABII42D4; remark: listed apart in the source
# [21] = molecular target: T5, human A-beta(1-40) peptide, monomeric …; assay: TR-FRET competition; remark: listed apart in the source
# [22] = molecular target: T5, human A-beta(1-40) peptide, monomeric …; assay: SPR, captured C-terminally biotinylated A-beta(1-40), 1:1 model
# Experimental: as §1
# [23] = molecular target: T3, A-beta(1-16) peptide; assay: SPR on captured A-beta(1-16)
# Experimental: as §1
# [24] = molecular target: T5, human A-beta(1-40) peptide, monomeric …; assay: TR-FRET competition and SPR
# [25] = molecular target: T4, mouse A-beta(1-40) peptide; assay: ELISA EC50
# [26] = molecular target: T5, human A-beta(1-40) peptide, monomeric …; assay: ABII002 TR-FRET competition assay
# [27] = molecular target: T5, human A-beta(1-40) peptide, monomeric …; assay: ELISA, peptide coated at 2 µg/ml, anti-myc detection
# [28] = molecular target: T4, mouse A-beta(1-40) peptide; assay: as above
# [29] = molecular target: T5, human A-beta(1-40) peptide, monomeric …; assay: TR-FRET competition, mean IC50; mean IC50 of Table XII
binder,measurement,setting,value
B1,IC50,[1],16 nM
same,IC50,[2],> 1000 nM
same,fold improved IC50 against monovalent ABII42D4,[3],3.2 fold
B2,binding result,[4],binds
same,IC50,[5],34.4 nM
same,EC50,[6],6 nM
same,koff,[7],0.027 s⁻¹
same,EC50,[8],187 nM
B3,ratio of A-beta(1-28)-p38 to 60A10-27GS-42D4-Alb in the complex,[9],~1
B4,EC50,[10],4.7 nM
same,EC50,[11],15.8 nM
same,EC50,[6],4.7 nM
same,IC50,[12],404 nM
same,EC50,[8],15.8 nM
same,Aggregation inhibition (% inhibition at 26 µM),[13],69%
same,IC50,[14],404 nM
B5,Kd,[15],0.224 nM
same,IC50,[16],0.53 nM
same,IC50,[17],0.5 nM
B6,IC50,[18],44 nM
same,IC50,[1],51 nM
same,fold improved IC50 against reference VHH 2G6,[19],≥ 21 fold
same,IC50,[2],> 1000 nM
same,IC50,[20],46.8 nM
same,IC50,[21],46.8 nM
same,EC50,[10],0.9 nM
same,EC50,[11],14.2 nM
same,Kd,[22],16 nM
same,EC50,[6],0.9 nM
same,koff,[7],0.0061 s⁻¹
same,EC50,[8],14.2 nM
same,binding result,[23],binds
B7,IC50,[18],2.9 nM
same,fold improvement of IC50 and KD over original ABII42D4,[24],> 10 fold
same,fold difference mouse against human A-beta,[25],1.8 fold
same,IC50,[26],2.9 nM
same,EC50,[27],1.8 nM
same,EC50,[28],3.3 nM
same,IC50,[29],2 nM
